B1: PTPN9 (parent)
chain: TQHLPRECLPENLGGYVKIDLATW
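Also: lentivirally expressed fusions sorted by FACS into six bins by GFP to DsRed ratio, PSI derived from sequencing read proportions per bin multiplied by bin number.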

Variants of: B1
Experiment: protein stability index of a GFP-peptide fusion (GPS, HEK-293T) (PSI 1-6); higher = more stable
Settings: c terminus: a fixed tail appended
With P10Y the protein stability index was 1.68.
For G15Q, the protein stability index was 1.38.
G15C showed a protein stability index of 2.36.
G15S showed a protein stability index of 1.92.
With G15P the protein stability index was 2.63.
In the case of G15I, the protein stability index is reported as 2.16.
With G15W the protein stability index was 2.88.
Variant G15F has a protein stability index of 2.44.
Work on G15E yielded a protein stability index of 2.26.
Variant G15Y has a protein stability index of 2.16.
Variant G15V has a protein stability index of 1.62.
Variant G15D has a protein stability index of 2.2.
In the case of G15N, the protein stability index is reported as 1.93.
In the case of G15K, the protein stability index is reported as 2.63.
Work on G15M yielded a protein stability index of 2.81.
G15L gave a protein stability index of 1.73.
Work on G15T yielded a protein stability index of 1.35.
With G15H the protein stability index was 1.76.
With G15R the protein stability index was 2.11.
G15A showed a protein stability index of 1.67.
Work on N12V yielded a protein stability index of 2.03.
With N12T the protein stability index was 1.82.
N12L showed a protein stability index of 1.76.
With N12W the protein stability index was 1.51.
Work on N12C yielded a protein stability index of 1.92.
For N12D, the protein stability index was 1.93.
N12S showed a protein stability index of 2.21.
For N12I, the protein stability index was 1.79.
Work on N12K yielded a protein stability index of 1.8.
Work on N12P yielded a protein stability index of 1.49.
For N12A, the protein stability index was 2.41.
N12G gave a protein stability index of 2.
N12M gave a protein stability index of 1.96.
In the case of N12Q, the protein stability index is reported as 1.91.
Work on N12E yielded a protein stability index of 3.02.
With N12Y the protein stability index was 2.52.
Variant N12R has a protein stability index of 1.53.
Work on N12F yielded a protein stability index of 1.55.
N12H gave a protein stability index of 1.92.
For I19Q, the protein stability index was 3.04.
Work on I19E yielded a protein stability index of 3.58.
With I19P the protein stability index was 3.11.
I19A showed a protein stability index of 2.86.
I19R gave a protein stability index of 2.96.
In the case of I19C, the protein stability index is reported as 2.3.
For I19L, the protein stability index was 2.06.
With I19M the protein stability index was 2.79.
In the case of I19F, the protein stability index is reported as 1.79.
In the case of I19N, the protein stability index is reported as 2.67.
Variant I19D has a protein stability index of 3.07.
I19H showed a protein stability index of 2.5.
For I19K, the protein stability index was 3.08.
With I19G the protein stability index was 3.3.
In the case of Y16T, the protein stability index is reported as 3.02.
Y16W gave a protein stability index of 1.5.
In the case of Y16H, the protein stability index is reported as 2.41.
Work on Y16A yielded a protein stability index of 3.01.
With Y16P the protein stability index was 3.04.
Y16R showed a protein stability index of 2.44.
For Y16C, the protein stability index was 2.48.
For Y16S, the protein stability index was 2.62.
In the case of Y16M, the protein stability index is reported as 2.35.
Variant Y16I has a protein stability index of 2.29.
Work on Y16L yielded a protein stability index of 1.98.
Variant Y16K has a protein stability index of 3.1.
Y16D gave a protein stability index of 3.39.
Y16Q gave a protein stability index of 2.67.
Work on Y16G yielded a protein stability index of 2.87.
Y16F gave a protein stability index of 1.66.
Y16N showed a protein stability index of 3.17.
Y16E showed a protein stability index of 3.37.
Y16V gave a protein stability index of 2.35.
With L13Q the protein stability index was 2.2.
In the case of L13S, the protein stability index is reported as 2.41.
Variant L13N has a protein stability index of 2.58.
Work on L13V yielded a protein stability index of 2.17.
With L13Y the protein stability index was 1.91.
In the case of L13W, the protein stability index is reported as 2.54.
With L13T the protein stability index was 2.28.
In the case of L13I, the protein stability index is reported as 1.91.
Work on L13M yielded a protein stability index of 2.27.
For L13H, the protein stability index was 2.21.
Work on L13G yielded a protein stability index of 1.98.
Variant L13K has a protein stability index of 1.96.
Work on L13E yielded a protein stability index of 3.46.
L13D gave a protein stability index of 2.65.
L13P gave a protein stability index of 2.17.
L13A gave a protein stability index of 2.5.
L13C showed a protein stability index of 1.55.
For L13R, the protein stability index was 2.43.
With L13F the protein stability index was 1.41.
K18L gave a protein stability index of 2.52.
Variant K18H has a protein stability index of 1.79.
Variant K18A has a protein stability index of 2.
With K18E the protein stability index was 1.93.
K18M gave a protein stability index of 1.73.
With K18W the protein stability index was 2.43.
K18G gave a protein stability index of 1.93.
With K18F the protein stability index was 3.63.
Work on K18V yielded a protein stability index of 3.3.
K18D showed a protein stability index of 3.51.
K18Y showed a protein stability index of 1.91.
K18R showed a protein stability index of 1.4.
Variant K18T has a protein stability index of 1.91.
For K18S, the protein stability index was 1.97.
In the case of K18I, the protein stability index is reported as 2.12.
K18Q showed a protein stability index of 1.97.
Work on K18P yielded a protein stability index of 2.19.
In the case of K18N, the protein stability index is reported as 2.18.
With K18C the protein stability index was 1.49.
Variant E11S has a protein stability index of 2.04.
For E11G, the protein stability index was 1.41.
For E11P, the protein stability index was 1.63.
In the case of E11M, the protein stability index is reported as 2.46.
For E11C, the protein stability index was 1.52.
With E11N the protein stability index was 1.41.
In the case of E11F, the protein stability index is reported as 1.8.
With E11T the protein stability index was 1.45.
E11V showed a protein stability index of 1.58.
Work on E11K yielded a protein stability index of 1.79.
For E11H, the protein stability index was 1.48.
Variant E11L has a protein stability index of 2.73.
For E11D, the protein stability index was 1.84.
Variant E11A has a protein stability index of 1.97.
With E11Q the protein stability index was 1.71.
E11R showed a protein stability index of 1.62.
With E11W the protein stability index was 1.56.
E11Y showed a protein stability index of 1.77.
For E11I, the protein stability index was 1.89.
With V17P the protein stability index was 2.2.
In the case of V17N, the protein stability index is reported as 2.36.
V17Y gave a protein stability index of 1.95.
Work on V17C yielded a protein stability index of 1.89.
V17K gave a protein stability index of 3.12.
In the case of V17F, the protein stability index is reported as 1.77.
Variant V17T has a protein stability index of 2.36.
For V17D, the protein stability index was 3.24.
With V17M the protein stability index was 2.01.
In the case of V17L, the protein stability index is reported as 1.48.
With V17Q the protein stability index was 2.5.
V17R gave a protein stability index of 2.
In the case of V17S, the protein stability index is reported as 2.57.
For V17E, the protein stability index was 2.85.
In the case of V17W, the protein stability index is reported as 1.89.
Work on V17A yielded a protein stability index of 2.57.
V17I showed a protein stability index of 2.24.
With V17G the protein stability index was 2.57.
With V17H the protein stability index was 2.29.
Variant G14Q has a protein stability index of 1.96.
Variant G14H has a protein stability index of 1.91.
Variant G14V has a protein stability index of 2.35.
Work on G14L yielded a protein stability index of 1.43.
With G14M the protein stability index was 2.03.
Work on G14T yielded a protein stability index of 1.46.
Work on G14E yielded a protein stability index of 2.15.
Work on G14I yielded a protein stability index of 1.74.
Variant G14W has a protein stability index of 2.02.
In the case of G14C, the protein stability index is reported as 1.55.
Variant G14D has a protein stability index of 2.99.
G14K showed a protein stability index of 1.68.
For G14A, the protein stability index was 1.96.
With G14S the protein stability index was 2.07.
Variant G14P has a protein stability index of 2.38.
Variant G14N has a protein stability index of 2.19.
With G14Y the protein stability index was 2.45.
G14R showed a protein stability index of 2.04.
In the case of G14F, the protein stability index is reported as 1.93.

From the supplement of paper PMC10567573
